Source: PMC7896290

Key:
[1] = target: anti-DNP wild-type human monoclonal IgG1 (human); assay: native MS
[2] = target: anti-DNP IgG1-RGY (human IgG1 with E345R, E430G, S440Y) (human); assay: high-speed atomic force microscopy
[3] = target: human monoclonal IgG4 (human); assay: native MS
[4] = target: human monoclonal IgG2 (human); assay: native MS

| Substance | stoichiometry N (SpA-B per IgG) [1] | reduction of IgG1-RGY hexamers [2] [%] | stoichiometry N [3] [SpA per IgG] | stoichiometry N [4] [SpA per IgG] | stoichiometry N [1] [SpA per IgG] |
| --- | --- | --- | --- | --- | --- |
| SpA-B domain wild type (single B-domain of staphylococcal protein A) (domain or fragment) | 2 | 50 |  |  |  |
| staphylococcal protein A, soluble construct containing all five Ig-binding domains (domain or fragment) |  |  | 1 | 1 | 1 |
